According to patent publication US11827690B2, “ApoC-II mimetic peptides” (THE UNITED STATES OF AMERICA, as represented by the …, priority 2017, dated 2023):
Non-standard residues stand in square brackets, D forms with d. No end group written: not given here. Nle = CCCC[C@H](N)C(=O)O

Tests used:
apoC-II knockout mice = assay: plasma lipids of apoC-II knockout mice after peptide injection; assay type: in vivo
Method: C57Bl/6 mice (wild-type), apoC-II knockout (apoC-II KO) mice, and apoC-III transgenic mice were used for in vivo study. The C57Bl/6 mice (wild-type) were purchased from Taconic Biosciences Inc. The apoC-II KO mice were created as described in Sakurai et al., J Pharmacol Exp Ther 356:341-353, 2016. The apoC-III transgenic mice were generated by overexpressing human apoC-III in C57Bl/6 mice. See Qu et al., J. Lipid Res. 48:1476-1487, 2007.
Mice were fasted overnight (approximately 12 hours) before the study and 6 hours during the study, the next day. The apoC-II mimetic peptides were synthetically produced and free of biological contamination (not available as FDA approved compounds/treatment). […] W.) administered either subcutaneous injection (S.Q. or S.C.), intraperitoneal injection (I.P.) or intravenous injection (I.V.) (in a sterile, pharmaceutical grade PBS solution at a volume ≤200 μL) as described in Sakurai et al., J Pharmacol Exp Ther 356:341-353, 2016.

[1] = molecular target: T1, LPL inhibited by apoC-III (Bos taurus, UniProt P11151); assay: LPL assay using human apoC-II deficient plasma as substrate with recombinant apoC-III; assay type: biochemical; settings: 25 μM apoC-III, FIG. 50
T1 sequence (P11151 29-478): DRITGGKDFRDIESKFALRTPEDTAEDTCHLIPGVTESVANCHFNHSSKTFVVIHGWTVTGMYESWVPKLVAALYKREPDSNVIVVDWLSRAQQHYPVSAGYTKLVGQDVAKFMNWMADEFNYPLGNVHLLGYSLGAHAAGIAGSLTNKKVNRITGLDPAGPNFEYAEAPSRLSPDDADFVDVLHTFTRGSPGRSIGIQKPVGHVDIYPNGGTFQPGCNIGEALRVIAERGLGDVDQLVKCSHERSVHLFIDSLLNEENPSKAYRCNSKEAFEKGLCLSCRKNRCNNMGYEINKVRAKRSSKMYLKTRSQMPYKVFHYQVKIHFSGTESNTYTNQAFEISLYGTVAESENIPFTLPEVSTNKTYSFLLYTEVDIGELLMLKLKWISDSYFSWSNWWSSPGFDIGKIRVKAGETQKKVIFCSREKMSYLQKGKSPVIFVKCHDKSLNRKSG
Method: (§1) LPL activity assay: 10 μL of Intralipid, human plasma sample, or mouse plasma sample was added in each well using repeater pipette. 10 μL (or 15 μL in the wells with no LPL control) of PBS and 10 μL of 1% BSA was added in each well using repeater pipette. 10 μL of peptides were added to corresponding wells in vertical triplicates (lowest concentration is on a left, highest is on the right). The plate was spun down at 1000 RPM for 10 seconds to mix and to remove the solutions from the wall of each well. The plate was put on ice and 5 μL of LPL was added using repeater pipette. The plate was spun down again at 1000 RPM for 10 seconds. The plate was covered and put back on ice for an incubation of 30 min. The plate was then moved to 37° C. and incubated for 1 hour.
(§2) Free fatty acids (NEFA) assay: 45 μL of 5 nmoL standard and 0 nmoL control (0.2% BSA) were added to corresponding wells. 225 μL of reagent A was added in each well using the reagent tray and 12-channel pipette. The plate was incubated for 10 min before 75 μL of reagent B was added to each well using the reagent tray and 12-channel pipette. The plate was not covered due to the high volume. The absorbance at 550 nm and 660 nm was measured.
LPL assay was performed using Intralipid, high TG human plasma (1:50 dilution), or apoC-III transgenic mouse plasma (1:50 dilution). When Intralipid was used as a substrate, 25 or 50 μM recombinant ApoC-III was added as an inhibitor. When the high TG human plasma was used as a substrate, 25 or 50 μM recombinant ApoC-III was added as an inhibitor with or without pre-incubation at 37° C. for 1 hour. An apoC-II mimetic peptide was added at various concentrations.

[2] = tested on: chylomicrons isolated from human plasma; assay: ApoC-III displacement study in chylomicrons isolated from human plasma; assay type: binding
Method: VLDL or chylomicrons isolated from human plasma were incubated with an apoC-II mimetic peptide for 1 hour at 37° C. and washed 3 times with PBS using spin filter with 100 kDa cutoff membrane. Supernatants were brought to the original volume with PBS and loaded to 4-12% Bis-TRIS SDS PAGE gel. ApoC-I, apoC-II, apoC-III, and apoE bands were identified by their corresponding size.

bovine LPL [3] = molecular target: T2, bovine LPL (Bos taurus, UniProt P11151); assay: in vitro LPL assay using hypertriglyceridemia patient sera as substrate; assay type: biochemical
T2 sequence (P11151 29-478): T1 sequence (P11151 29-478)
Method: (§3) Preparation of LPL: frozen stock of 10 μL of 0.5 mg/mL bovine LPL was used and diluted 1:100 (10 μL+990 μL of PBS).
(§4) Preparation of free fatty acid (NEFA) assay: NEFA reagents were purchased from Wako Diagnostics, Wako Life Sciences, Inc. Reagent A was prepared by mixing Coloring Reagent A with Solvent A (225 μL per well). Reagent B was prepared by mixing Coloring Reagent B with Solvent B (75 μL per well). 5 nmoL oleic acid standard was prepared by diluting 20 μL of 1 mM oleic acid stock (WAKO NEFA standard solution) with 180 μL of 0.2% BSA.
as §1, §2

bovine LPL [4] = molecular target: T2, bovine LPL; assay: in vitro LPL assay using apoC-II deficient patient sera as substrate; assay type: biochemical
Method: as §3
Preparation of 20% Intralipid: 2000 mg/dL TG Intralipid was used to prepare 3 mg/dL TG Intralipid by diluting 1.5 μL of the stock with 998.5 μL PBS, or by diluting the stock 1:10 first and then mixing 15 μL of the diluted stock with 985 μL PBS. When apoC-II deficient human serum was used as a substrate, a frozen 10 μL aliquot of 1711 mg/dL (TG) was diluted by adding 990 μL PBS (1:100 dilution).
as §4, §1, §2

[5] = tested on: VLDL isolated from human plasma; assay: ApoC-III displacement study in VLDL isolated from human plasma; assay type: binding
Method: VLDL or chylomicrons isolated from human plasma were incubated with an apoC-II mimetic peptide for 1 hour at 37° C. and washed 3 times with PBS using spin filter with 100 kDa cutoff membrane. […] ApoC-I, apoC-II, apoC-III, and apoE bands were identified by their corresponding size.

Substance: DYLKEVFEKLRDLYEKFTAAnLSTYTGIFTDQVLSVLKGEE (DYLKEVFEKLRDLYEKFTAA[Nle]STYTGIFTDQVLSVLKGEE) [Delta6]
- plasma TG (apoC-II knockout mice; 0.25, 0.5, and 1 μmol/kg of body weight intraperitoneally, all doses, FIG. 23): rapid and marked reduction of plasma TG
- plasma TG (apoC-II knockout mice; intraperitoneal injection): rapid and marked reduction of plasma TG
- total cholesterol level (apoC-II knockout mice; intraperitoneal injection): decrease in the total cholesterol level
- effect on inhibition of LPL by apoC-III [1]: overcame the inhibitory effect of apoC-III and facilitated lipolysis
- affinity for chylomicrons compared with the apolipoproteins [2]: higher affinity
- LPL activation (bovine LPL [3]; patient sera TG about 1000 mg/dL to about 1700 mg/dL, FIGS. 15A-D): activated LPL in vitro
- LPL activity (bovine LPL [3]; sera of patients with high levels of apoC-III protein, FIG. 27): increased the LPL activity
- LPL activation compared with full length apoC-II protein (bovine LPL [4]; 10 pM to 10 μM, FIG. 51): activated LPL in vitro more efficiently than the full length apoC-II protein
- promoting TG hydrolysis in the presence of LPL (bovine LPL [4]; FIG. 6): capable of promoting TG hydrolysis in the presence of LPL
- efficiency compared with native apoC-II protein (bovine LPL [4]; at lower concentrations, FIG. 6): worked more efficiently than the native apoC-II protein
- TG hydrolysis (bovine LPL [4]; concentrations from 100 pM to 10 nM, FIG. 14): exhibited the ability to promote TG hydrolysis in a dose dependent matter
- affinity for the VLDL compared with the apolipoproteins [5]: higher affinity
- apoC-III displacement in VLDL ([5]; SDS PAGE): capable of displacing apoC-III
